For data set [1], the target named is T1, RAR alpha:RXR alpha heterodimer (Homo sapiens, UniProt P10276;P19793 P10276:1-462,P19793:1-462). As to the kind of experiment: EMSA; less intense than on DR-5. Particulars: tags: rabbit reticulocyte lysate (Promega); from pCMX-hRARalpha and pCMX-hRXRalpha; label: 32P. The procedure:
(§1) Gel retardation assays were carried out according to Kliewer et al. (1992, supra). The plasmids pCMX-hRARα and pCMX-hRXRα (Kliewer et al., 1992, supra) were linearlized and capped mRNA was synthesized in vitro using T7 RNA polymerase (Stratagene) according to manufacturer's instructions. Aliquots of mRNA were incubated with rabbit reticulocyte lysate (Promega) for in vitro translation. For gel retardation assay, 5 µl of in vitro translated proteins were preincubated in binding buffer (10 mM Tris[pH8.0], 40 mM KCl, 0.05% Nonidet P-40, 6% glycerol, 1 mM DTT, 5 µg/ml poly[dI.dC]) on ice for 15 minutes. For competition assays, 20 fold molar excess of competitor oligonucleotides was mixed at this step. Oligonucleotides containing DR-5 (RARβ2RARE), HOXB DR-2A (nucleotides 30–43 of SEQ ID NO:1) and HOXB DR-2B (nucleotides 41–54 of SEQ ID NO:2) were used as competitors and probes. Subsequently, ^32P-labelled oligonucleotide probes were added to the reaction mixtures and incubated on ice for 15 minutes. The same oligonucleotides used for the construction of luciferase plasmids were used. Reaction mixtures were resolved by 5% polyacrylamide gel electrophoresis in 0.5×TBE. The dried gels were autoradiographed at −70° C.
The ability of RAR and RXR to form either homo- or heterodimers on the HOXB1 DR-2A and DR-2B response elements was examined using gel retardation assays. […]
Background: Mobility shift assays separate free from complexed probe on a gel.

Data set [2] concerns the target T1, RAR alpha:RXR alpha heterodimer. In words: EMSA; less intense than on DR-5; 74-fold RA induction of TK.Luc(DR2B)2 with both receptors in NT2/D1 cells. The settings on record: tags: rabbit reticulocyte lysate (Promega); from pCMX-hRARalpha and pCMX-hRXRalpha; label: 32P. Here is the method: as §1, with “Aliquots” for “Gel retardation assays were carried out according to Kliewer et al. (1992, supra). The plasmids pCMX-hRARα and pCMX-hRXRα (Kliewer et al., 1992, supra) were linearlized and capped mRNA was synthesized in vitro using T7 RNA polymerase (Stratagene) according to manufacturer's instructions. Aliquots”
The ability of RAR and RXR to form either homo- or heterodimers on the HOXB1 DR-2A and DR-2B response elements was examined using gel retardation assays. The expression plasmids pCMX-hRARα and pCMX-hRXRα were linearized with NheI restriction enzyme. Subsequently, capped mRNA was synthesized in vitro using T7 RNA polymerase (Stratagene) according to the manufacturer's instructions. […]

We go through two molecules from US5702914, “Use of reporter genes for retinoid receptor screening assays having novel retinoid-associated response elements” (The Salk Institute for Biological Studies).

T1 sequence (P10276 whole entry, chain 1 of 2): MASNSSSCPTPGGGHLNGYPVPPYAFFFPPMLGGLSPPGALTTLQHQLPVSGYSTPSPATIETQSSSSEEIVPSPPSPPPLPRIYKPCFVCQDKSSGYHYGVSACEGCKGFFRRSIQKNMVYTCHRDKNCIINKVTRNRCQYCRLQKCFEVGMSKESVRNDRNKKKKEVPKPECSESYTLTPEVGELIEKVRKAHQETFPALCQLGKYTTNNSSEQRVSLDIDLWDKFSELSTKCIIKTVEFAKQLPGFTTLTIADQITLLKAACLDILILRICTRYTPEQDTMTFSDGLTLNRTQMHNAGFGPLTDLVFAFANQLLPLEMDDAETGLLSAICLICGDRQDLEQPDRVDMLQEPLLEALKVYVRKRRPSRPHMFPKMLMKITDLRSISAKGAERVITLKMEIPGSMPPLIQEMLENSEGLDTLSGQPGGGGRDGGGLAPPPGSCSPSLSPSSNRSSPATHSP
T1 sequence (P19793 whole entry, chain 2 of 2): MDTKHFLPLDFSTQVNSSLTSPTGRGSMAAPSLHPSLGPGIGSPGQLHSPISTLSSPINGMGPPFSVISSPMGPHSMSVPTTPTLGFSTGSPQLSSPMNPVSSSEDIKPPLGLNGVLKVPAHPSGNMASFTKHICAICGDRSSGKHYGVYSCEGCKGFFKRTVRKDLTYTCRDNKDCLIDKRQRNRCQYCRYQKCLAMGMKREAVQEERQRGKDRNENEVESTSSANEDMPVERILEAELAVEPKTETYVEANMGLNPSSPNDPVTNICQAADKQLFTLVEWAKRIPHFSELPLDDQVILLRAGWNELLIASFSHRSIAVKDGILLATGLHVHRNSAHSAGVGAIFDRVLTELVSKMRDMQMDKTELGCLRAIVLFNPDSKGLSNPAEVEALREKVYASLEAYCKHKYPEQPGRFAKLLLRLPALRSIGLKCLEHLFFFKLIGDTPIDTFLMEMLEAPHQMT

B1: HOXB1 DR-2A (dsDNA)
DNA 1: TGAACTCTTGCCCT
DNA 2: AGGGCAAGAGTTCA
As to B1, the binding result in data set [1] was “binds”.

B2: HOXB1 DR-2B (dsDNA)
DNA 1: CGGGCCTGACCTTTTTACCTCGAAG
DNA 2: CTTCGAGGTAAAAAGGTCAGGCCCG
Regarding B2, in data set [2], the binding result is on record as “binds”.
